Measured values taken from patent publication US7517661B2, “Methods of screening for ligands for FPRL2” (Takeda Pharmaceutical Company Limited, priority 2003, dated 2009).
Where a chain is given by its changes, count along the chain named. Where no end group is shown, it is not given here.

What was measured:
human FPRL2 [1] = target: T1, human FPRL2 (Homo sapiens, UniProt P25089); test: Intracellular cAMP production inhibition assay (AlphaScreen) in human FPRL2-expressing CHO cells; type: cell-based; conditions: human FPRL2-expressing CHO cells; reactivity also examined for human FPRL1, human FPR1 and mock CHO (FIGS. 1-4)
T1 construct: expressed in transfected cells; host or cells: CHO cells
T1 sequence (P25089 1-353 G94A/S211T/D338H): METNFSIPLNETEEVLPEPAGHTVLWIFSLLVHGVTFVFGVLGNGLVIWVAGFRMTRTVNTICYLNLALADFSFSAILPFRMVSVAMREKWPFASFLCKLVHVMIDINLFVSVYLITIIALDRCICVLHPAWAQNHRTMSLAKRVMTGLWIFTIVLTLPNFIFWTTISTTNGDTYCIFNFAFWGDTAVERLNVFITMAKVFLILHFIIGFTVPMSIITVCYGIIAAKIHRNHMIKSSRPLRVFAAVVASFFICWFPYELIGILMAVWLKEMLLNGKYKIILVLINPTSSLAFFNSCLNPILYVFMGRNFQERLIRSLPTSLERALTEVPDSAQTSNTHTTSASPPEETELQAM
Experimental: (§1) Orphan G protein-coupled receptor protein-expressing CHO cells were inoculated in one flask of 150 cm^2 at 1×10^7 cells, followed by incubation at 37° C. in a CO2 incubator. Subsequently to the incubation, the cells were detached using 0.5 mM EDTA/PBS, and washed with PBS. The cells were then suspended at a density of 1×10^7 cells/ml in Buffer 1 (HBSS+0.1% BSA, 25 mM HEPES, pH 7.3, 0.5 mM IBMX). This cell suspension, 440 μl, was mixed with 22 μl of anti-cAMP acceptor beads of AlphaScreen cAMP Assay Kit (Perkin Elmer) and 638 μl of Buffer 1. The resulting mixture was dispensed on a white 96-well plate (Costar) by 10 μl each. Next, 10 μl each of a Buffer 1 dilution or solution of the compound to be screened was added to each well. In this case, the cell suspension was not given in one row of the plate but only a mixture of 9 μl of anti-cAMP acceptor beads and 441 μl of Buffer 1 was charged and instead of the compound, a serial dilution of cAMP was added thereto. This was made standard. The plate in which a mixture of the cell suspension and the compound was charged was kept shaken at room temperature for 30 minutes. Thirty minutes after, a mixture of 20 μl of Biotinyl camp and 82 μl of Streptavin donor beads of AlphaScreen cAMP Assay kit with 40 ml of Buffer 2 (HBSS+0.1% BSA, 25 mM HEPES, pH 7.3, 1.5% Tween 20) was added to all wells of the plate by 30 μl each. The plate was kept shaken at room temperature for 3 hours and the fluorescence intensity was measured by Fusion a (Perkin Elmer). Using the cAMP standard charged in the plate, the cAMP level in each well was calculated. In addition to human FPRL2-expressing CHO cells, three orphan G protein-coupled receptor protein-expressed CHO cells were added and the resulting compound library was provided for screening using the assay system described above.

human FPRL2 [2] = target: T2, human FPRL2 (Homo sapiens, UniProt P25089, D338H/G94A/S211T); test: as above; type: cell-based; conditions: summary statement in disclosure of invention
T2 construct: expressed in transfected cells; host or cells: CHO cells
T2 sequence (P25089 1-353 G94A/S211T/D338H): T1 sequence (P25089 1-353 G94A/S211T/D338H)
Experimental: as §1

FPRL2 = target: T3, FPRL2 (Homo sapiens, UniProt P25089); conditions: J Biol. Chem., Jun. 15, 2001; 276 (24): 21585-93; cited from earlier work
T3 sequence (P25089 1-353): T1 sequence (P25089 1-353 G94A/S211T/D338H) with A94G, T211S, H338D

ligand activity on FPRL2 (human FPRL2 [2]) | Substance | intracellular cAMP production inhibition activity (human FPRL2 [1]) | agonist for FPRL2 (reported) (FPRL2)
exhibit a ligand activity on FPRL2 | Ala-Arg-Pro-Gly-Tyr-Leu-Ala-Phe-Pro-Arg-Met-NH2 (ARPGYLAFPRM-NH2; listed as Aplysia sp.) [SCPA] | exhibited the intracellular cAMP production inhibition activity specific to human FPRL2 | 
exhibit a ligand activity on FPRL2 | Gly-Asn-His-Trp-Ala-Val-Gly-His-Leu-Met-NH2 (GNHWAVGHLM-NH2; listed as Homo sapiens) [hNeuromedin C] | exhibited the intracellular cAMP production inhibition activity specific to human FPRL2 | 
exhibit a ligand activity on FPRL2 | His-Trp-Ala-Trp-Phe-Lys-NH2 (HWAWFK-NH2; not fully specified (residues 2, 5); printed as His-Trp-Ala-Trp-Phe-Lys-NH2) [GHRP-6] | exhibited the intracellular cAMP production inhibition activity specific to human FPRL2 | 
exhibit a ligand activity on FPRL2 | Met-Pro-His-Ser-Phe-Ala-Asn-Leu-Pro-Leu-Arg-Phe-NH2 (MPHSFANLPLRF-NH2; listed as Sus scrofa) [hRFRP-1-12] | exhibited the intracellular cAMP production inhibition activity specific to human FPRL2 | 
 | Trp-Lys-Tyr-Met-Val-Met-NH2 |  | agonist for FPRL2
